Measured values as given in patent publication US20210244785A1.

Experiments:
[1] = tryptophan fluorescence, urea dissociation of multimeric peptide complexes, 5 µM peptide
[2] = tryptophan fluorescence, urea dissociation of multimeric peptide complexes, 25 µM peptide
[3] = biological target: S. epidermidis delta-haemolysin (Staphylococcus epidermidis); experiment: tryptophan fluorescence, urea dissociation of multimeric peptide complexes, 5 µM peptide
[4] = biological target: S. epidermidis delta-haemolysin (Staphylococcus epidermidis); experiment: tryptophan fluorescence, urea dissociation of multimeric peptide complexes, 25 µM peptide

| Substance | midpoint of urea unfolding curve (5 µM peptide) [1] | midpoint of urea unfolding curve (25 µM peptide) [2] | deltaG (H2O) (5 µM peptide) [3] [kcal/mol] | deltaG (H2O) (25 µM peptide) [4] [kcal/mol] |
| --- | --- | --- | --- | --- |
| S. epidermidis delta-haemolysin | The midpoints of the unfolding curves of 5 µM and 25 µM were 2.14 and 3.20M urea | The midpoints of the unfolding curves of 5 µM and 25 µM were 2.14 and 3.20M urea |  |  |
| S. epidermidis delta-haemolysin (peptide) |  |  | 1.43 | 1.57 |
